The values that follow come from publication PMC11026580.

Assay [1] has as its target extracellular domain of the human FcαRI (human) (UniProt P24071).
For assay [2] the target is unchanged. The source holds these as a separate data set.
For assay [3], the target named is IgA2 (m2) C2Q. The experiment in a line: SEC; analytical size-exclusion chromatography of affinity-purified IgA2 (m2) from small-scale transient transfections; JC co-expressed (LC:HC:JC 1:1:0.5). On the technique in general: SEC sorts molecules by how far they enter the pores of the column.

Like-named read-outs stand apart in the source and are kept apart here.

Chain of extracellular domain of the human FcαRI (human) (P24071 22-227): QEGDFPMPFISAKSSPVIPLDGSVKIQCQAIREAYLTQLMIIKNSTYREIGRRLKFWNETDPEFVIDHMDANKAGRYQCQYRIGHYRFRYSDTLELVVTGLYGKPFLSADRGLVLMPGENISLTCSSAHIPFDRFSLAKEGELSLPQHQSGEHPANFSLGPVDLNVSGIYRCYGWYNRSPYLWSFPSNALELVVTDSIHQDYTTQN

As usually defined, the Kd is the free concentration of one partner at which half of the binding sites on the other are occupied at equilibrium, for simple one-to-one binding. A low value points to a tighter complex. In assay [1], IgA2 (m2) C2Q (from UniProt P01877) displayed a Kd of 193 nM. This lies in the sub-micromolar range.
As for IgA2 (m2) N2Q (from UniProt P01877), in assay [2], the Kd was 303 nM.
One may read the stoichiometry N as a count of units in the complex or per binding partner. Regarding IgA2 (m2) C2Q (antibody), the stoichiometry N in assay [3] is 2.
